IntAct's records for PubMed 16959570

B1: FK506-binding protein 4 (Saccharomyces cerevisiae), Q06205 (parent)
chain: MSDMLPLATYSLNVEPYSPTPALNFKIPVTIRITMAAIDPEPFDDDKKPSTLRIIKRNPELTRGEYYNQDNNDGLEEDESESEQEADVPKRSVKSKKGKAVEQSESEDSEDENEIDDEFEECVLLTLSPKGQYQQALDITIAPEEDVQFVVTGSYTISLTGNYVKHPFDNSSDSDEDEEDYYSDEESSNGEEEEEEEEEDDEELSSGDDDLDDLVDASDIESRLDELVKKDEKKKNNKKDSKRKHEEDEEESAKPAEKKQTTKKDKKAEKVKDSEESKPKPKTKLLEGGIIIEDRVTGKGPHAKKGTRVGMRYVGKLKNGKVFDKNTKGKPFVFKLGQGEVIKGWDIGVAGMAVGGERRIVIPAPYAYGKQALPGIPANSELTFDVKLVSMK

Variants of: B1
Details: with h3_yeast HHT1, P61830

Variant	effect of a mutation on the interaction
F323A	disrupting interaction
